# US10864252B2, “Anti-SSX-2 T cell receptors and related materials and methods of use” (The United States of America, as represented by the …, priority 2010, dated 2020)
# B1: SSX2-TCR-WT: HLA-A2 restricted anti-SSX-2 TCR alpha and beta chains encoded by SEQ ID NO: 27, tested as transduced human PBLs (protein)
# chain: MSLSSLLKVVTASLWLGPGIAQKITQTQPGMFVQEKEAVTLDCTYDTSDPSYGLFWYKQPSSGEMIFLIYQGSYDQQNATEGRYSLNFQKARKSANLVISASQLGDSAMYFCAMTSGFGNEKLTFGTGTRLTIIPNIQNPDPAVYQLRDSKSSDKSVCLFTDFDSQTNVSQSKDSDVYITDKTVLDMRSMDFKSNSAVAWSNKSDFACANAFNNSIIPEDTFFPSPESSCDVKLVEKSFETDTNLNFQNLSVIGFRILLLKVAGFNLLMTLRLWSSRAKRSGSGATNFSLLKQAGDVEENPGPMGPGLLHWMALCLLGTGHGDAMVIQNPRYQVTQFGKPVTLSCSQTLNHNVMYWYQQKSSQAPKLLFHYYDKDFNNEADTPDNFQSRRPNTSFCFLDIRSPGLGDAAMYLCATSRGQGGQPQHFGDGTRLSILEDLNKVFPPEVAVFEPSEAEISHTQKATLVCLATGFFPDHVELSWWVNGKEVHSGVSTDPQPLKEQPALNDSRYCLSSRLRVSATFWQNPRNHFRCQVQFYGLSENDEWTQDRAKPVTQIVSAEAWGRADCGFTSVSYQQGVLSATILYEILLGKATLYAVLVSALVLMAMVKRKDF
# Columns and labels:
# 888 = test: IFN-γ release, co-culture with 888; assay type: cell-based; conditions: co-cultured with 888
# Excerpt: (§1) SSX-2 TCR-transduced PBLs were co-cultured with various tumor cell lines. […] FIGS. 4A and 4B, FIG. 11, and Tables 3 and 4 show additional results of PBLs from human donors that were transduced with the SSX-2 TCR of Example 2 when these PBLs were co-cultured with various tumor cells.
# Lau 149 mel = test: IFN-γ release, co-culture with Lau 149 mel; assay type: cell-based; conditions: co-cultured with Lau 149 mel
# Excerpt: (§2) PBLs that were untransduced (UT) or transduced with a vector comprising SEQ ID NO: 27 (SSX-2 TCR), SEQ ID NO: 29 (codon-optimized SSX-2 TCR), or SEQ ID NO: 30 (codon-optimized SSX-2 TCR including mouse constant region) were co-cultured with various tumor cell lines. Tables 5 and 6 show the resulting interferon-γ levels (pg/ml) measured with respect to PBL from two different donors.
# MCF7 = test: IFN-γ release, co-culture with MCF7; assay type: cell-based; conditions: co-cultured with MCF7
# Excerpt: as §1
# [1] = IFN-γ release, transduced PBL without target cells (medium / T cell alone); assay type: cell-based, human; conditions: for IFN-γ: MEDIUM, no target cells; for interferon-γ levels: T cell alone
# Excerpt: as §2, with “SSX-2 TCR-transduced PBLs were co-cultured with various tumor cell lines. […] FIGS. 4A and 4B, FIG. 11, and Tables 3 and 4 show additional results of PBLs from human donors that were transduced with the SSX-2 TCR of Example 2 when these PBLs were co-cultured with various tumor cells. PBLs” for “PBLs”
# COS-A2-SSX2 cells = test: CD137 (4-1BB) upregulation after co-culture with COS-A2-SSX2 cells; assay type: cell-based; conditions: FACS after co-culture with COS-A2-SSX2 cells
# SKOV3 Ovarian = test: IFN-γ release, co-culture with SKOV3 ovarian; assay type: cell-based; conditions: co-cultured with SKOV3 (Ovarian)
# Excerpt: as §2, with “SSX-2 TCR-transduced PBLs were co-cultured with various tumor cell lines. […] FIGS. 4A and 4B, FIG. 11, and Tables 3 and 4 show additional results of PBLs from human donors that were transduced with the SSX-2 TCR of Example 2 when these PBLs were co-cultured with various tumor cells. PBLs” for “PBLs”
# [2] = system: melanoma (624, and 1300) and glioblastoma cell lines (U251); test: IFN-γ release, co-culture with various tumor cell lines (FIG. 3); assay type: cell-based
# Excerpt: SSX-2 TCR-transduced PBLs were co-cultured with various tumor cell lines.
# [3] = target: T1, SSX-2: 41-49 (KASEKIFYV) peptide (Homo sapiens, UniProt Q16385); test: IFN-γ release, co-culture with T2 cells pulsed with SSX-2: 41-49 peptide; assay type: cell-based
# T1 construct: host or cells: T2 cells (peptide-pulsed)
# Excerpt: SSX-2 TCR-transduced PBLs were co-cultured with T2 cells from two human donors, where the T2 cells were pulsed with varying concentrations of the SSX-2: 41-49 (KASEKIFYV) peptide. FIGS. 1A and 1B show the resulting interferon-γ levels (pg/ml) measured. […] The differences between FIGS. 1A and 1B may be due to donor variability.
# PBLs that were untransduced (UT) or transduced with a vector comprising SEQ ID NO: 27 (SSX-2 TCR), SEQ ID NO: 29 (codon-optimized SSX-2 TCR), or SEQ ID NO: 30 (codon-optimized SSX-2 TCR including mouse constant region) were co-cultured with T2 cells that were pulsed with an SSX-2 were pulsed with varying concentrations of the SSX-2: 41-49 (KASEKIFYV) (SEQ ID NO: 1) peptide.
# 293-A2 SSX2 = test: IFN-γ release, co-culture with 293-A2 SSX2; assay type: cell-based; conditions: co-cultured with 293-A2 SSX2
# Excerpt: as §2, with “SSX-2 TCR-transduced PBLs were co-cultured with various tumor cell lines. […] FIGS. 4A and 4B, FIG. 11, and Tables 3 and 4 show additional results of PBLs from human donors that were transduced with the SSX-2 TCR of Example 2 when these PBLs were co-cultured with various tumor cells. PBLs” for “PBLs”
# [4] = system: SSX2+/HLA-A2+ target cells; test: Proliferation ([3H]-thymidine) on co-culture with tumor cells; assay type: cell-based; conditions: 1300 mel, 624 mel, 888 mel, SK mel 37 or COS-A2-SSX-2 cells; FIGS. 9A-9E
# Excerpt: In another experiment, PBLs transduced as described in this example were co-cultured with 1300 mel cells, 624 mel cells, 888 mel cells, SK mel 37 cells, or COS-A2-SSX-2 cells.
# SK MEL37 = test: IFN-γ release, co-culture with SK MEL37 melanoma; assay type: cell-based; conditions: co-cultured with SK MEL37 (Melanoma)
# Excerpt: as §2, with “SSX-2 TCR-transduced PBLs were co-cultured with various tumor cell lines. […] FIGS. 4A and 4B, FIG. 11, and Tables 3 and 4 show additional results of PBLs from human donors that were transduced with the SSX-2 TCR of Example 2 when these PBLs were co-cultured with various tumor cells. PBLs” for “PBLs”
# H82 = test: IFN-γ release, co-culture with H82; assay type: cell-based; conditions: co-cultured with H82
# Excerpt: as §1
# [5] = system: SSX-2+/HLA-A2+ target cells; test: Percent lysis of target cells; assay type: cell-based; conditions: FIGS. 7A-D and 8A-D, various E:T ratios
# COS-A2 = test: IFN-γ release, TCR-transduced PBL co-cultured with COS-A2; assay type: cell-based; conditions: for IFN-γ: human donor PBL co-cultured with COS-A2; for interferon-γ levels: co-cultured with Cos-A2
# Excerpt: as §2, with “SSX-2 TCR-transduced PBLs were co-cultured with various tumor cell lines. […] FIGS. 4A and 4B, FIG. 11, and Tables 3 and 4 show additional results of PBLs from human donors that were transduced with the SSX-2 TCR of Example 2 when these PBLs were co-cultured with various tumor cells. PBLs” for “PBLs”
# 293-A2 = test: IFN-γ release, co-culture with 293-A2; assay type: cell-based; conditions: co-cultured with 293-A2
# Excerpt: as §2, with “SSX-2 TCR-transduced PBLs were co-cultured with various tumor cell lines. […] FIGS. 4A and 4B, FIG. 11, and Tables 3 and 4 show additional results of PBLs from human donors that were transduced with the SSX-2 TCR of Example 2 when these PBLs were co-cultured with various tumor cells. PBLs” for “PBLs”
# SSX-2 = test: Tetramer binding of transduced PBL; conditions: human donor-derived PBL; CD4 and CD8 cells
# K562 = test: IFN-γ release, co-culture with K562; assay type: cell-based; conditions: co-cultured with K562
# Excerpt: as §2
# HEPG2 = test: IFN-γ release, co-culture with HEPG2; assay type: cell-based; conditions: co-cultured with HEPG2
# Excerpt: as §1
# COS-A2-SSX-2 cells = test: Proliferation ([3H]-thymidine) on co-culture with COS-A2-SSX-2 cells; assay type: cell-based; conditions: PBL from Donor 1 or Donor 2; FIGS. 6A, 6B
# Protocol: PBLs from Donor 1 or Donor 2 that were untransduced (UT) or transduced with a vector comprising SEQ ID NO: 27 (SSX-2 TCR), SEQ ID NO: 29 (codon-optimized SSX-2 TCR), or SEQ ID NO: 30 (codon-optimized SSX-2 TCR including mouse constant region) were co-cultured with COS-A2-SSX-2 cells. Proliferation in terms of [^3H]-thymidine incorporation (CPM) was measured and is shown in FIG. 6A (Donor 1) and 6B (Donor 2).
molecule,measurement,setting,value
B1,IFN-γ,888; Table 3,126 pg/mL
same,IFN-γ,888; Table 4,143 pg/mL
same,interferon-γ levels,Lau 149 mel; Table 5 donor,285 pg/mL
same,interferon-γ levels,Lau 149 mel; Table 6 donor,125 pg/mL
same,IFN-γ,MCF7; Table 3,0 pg/mL
same,IFN-γ,MCF7; Table 4,3 pg/mL
same,IFN-γ,[1]; Table 3,0 pg/mL
same,IFN-γ,[1]; Table 4,0 pg/mL
same,interferon-γ levels,[1]; Table 5 donor,165 pg/mL
same,interferon-γ levels,[1]; Table 6 donor,322 pg/mL
same,activation marker CD137 (4-1BB),COS-A2-SSX2 cells,upregulated
same,IFN-γ,SKOV3 Ovarian; Table 3,663 pg/mL
same,IFN-γ,SKOV3 Ovarian; Table 4,610 pg/mL
same,recognition of tumor cell lines (IFN-γ),[2],"recognized naturally processed and presented SSX-2 protein in both melanoma (624, and 1300) and glioblastoma cell lines (U251)"
same,recognition of SSX-2: 41-49 peptide (IFN-γ),[3]; FIG. 10,recognize SSX-2: 41-49 peptide
same,lowest SSX-2: 41-49 peptide concentration recognized (IFN-γ),"[3]; T2 cells from two human donors pulsed with varying peptide concentrations, FIGS. 1A, 1B",≤ 0.01 ng/mL
same,IFN-γ,293-A2 SSX2; Table 3,33913 pg/mL
same,IFN-γ,293-A2 SSX2; Table 4,20595 pg/mL
same,proliferation ([3H]-thymidine incorporation),[4],proliferate in response to co-culture with SSX2+/HLA-A2+ target cells
same,IFN-γ,SK MEL37; Table 3,10000 pg/mL
same,IFN-γ,SK MEL37; Table 4,9720 pg/mL
same,IFN-γ,H82; Table 3,141 pg/mL
same,IFN-γ,H82; Table 4,100 pg/mL
same,lytic activity (percent lysis),[5],specific lytic activity against SSX-2^+/HLA-A2^+ target cells
same,IFN-γ,COS-A2; Table 3,297 pg/mL
same,IFN-γ,COS-A2; Table 4,180 pg/mL
same,interferon-γ levels,COS-A2; Table 5 donor,2839 pg/mL
same,interferon-γ levels,COS-A2; Table 6 donor,460 pg/mL
same,IFN-γ,293-A2; Table 3,173 pg/mL
same,IFN-γ,293-A2; Table 4,144 pg/mL
same,interferon-γ levels,293-A2; Table 5 donor,582 pg/mL
same,interferon-γ levels,293-A2; Table 6 donor,1520 pg/mL
same,tetramer binding,SSX-2,tetramer binding
same,interferon-γ levels,K562; Table 5 donor,1969 pg/mL
same,interferon-γ levels,K562; Table 6 donor,1807 pg/mL
same,IFN-γ,HEPG2; Table 3,25 pg/mL
same,IFN-γ,HEPG2; Table 4,61 pg/mL
same,proliferation ([3H]-thymidine incorporation),COS-A2-SSX-2 cells,proliferate in response to co-culture with COS-A2-SSX-2 cells
